Source: PMC11154593, “New insights into the domain of unknown function (DUF) of EccC5, the pivotal ATPase providing the secretion driving force to the ESX-5 secretion system” (Acta Crystallographica. Section D, Structural Biology, 2024)
Values joined by “and” are separate entries in the source; they are usually repeats but may differ in a detail not shown here. Equal entries are not always repeated.

Target: the molecule itself
Assay: SEC; […] (16/60) […]; 20 mM Tris-HCl pH 7.5, 150 mM NaCl ([…]) or 20 mM HEPES pH 7.5, 150 mM NaCl, 5 mM MgCl2 ([…]; 4°C

B1: DUF domain of EccC5 from M. tuberculosis (crystallographic construct, residues 1-417 with 17-118 rep (domain or fragment)
chain: MKRGFARPTPEKPPVIGSSGQESADSMDANYRWFHPAPNTLAAAVGSPRMWERKPDGKDLNFGVVRVGGSGFGRYQSVVYNLPKMVSLLVEPWYALVGEREQVLGLMRAIICQLAFSHGPDHVQMIVVSSDLDQWDWVKWLPHFGDSRRHDAAGNARMVYTSVREFAAEQAELFAGRGSFTPRHASSSAQTPTPHTVIIADVDDPQWEYVISAEGVDGVTFFDLTGSSMWTDIPERKLQFDKTGVIEALPRDRDTWMVIDDKAWFFALTDQVSIAEAEEFAQKLAQWRLA
notes: EccC5, M. tuberculosis, UniProt P9WNA5, residues 1-16 (before the removed transmembrane region); linker replacing residues 17-118; EccC5, M. tuberculosis, UniProt P9WNA5, residues 119-166; linker replacing residues 167-198; EccC5, M. tuberculosis, UniProt P9WNA5, residues 199-417; also called MtbEccC5 DUF; EccC5 DUF; not shown: His6, N-terminal, cleaved; SUMO, N-terminal, cleaved
  stoichiometry N: 3 and 6
